Reference: patent US20200308299A1, “ANTI-GPC-1 ANTIBODY” (National University Corporation Kochi University, priority 2017, published 2020)

B1: clone 01a033 (antibody)
heavy: QVQLKQSGPELVKPGASVKISCKASGYSFTGYYMHWVKQSPEKSLEWIGEINPSTGDTTYNQKFKAKATLTVDKSSSTAYMQLKSLTSEDSAVYYCAREKRDDGVFAYWGQGTLVTVSSAKTTAPSVYPLAPVCGDTTGSSVTLGCLVKGYFPEPVTLTWNSGSLSSGVHTFPAVLQSDLYTLSSSVTVTSSTWPSQSITCNVAHPASSTKVDKKIEPRGPTIKPCPPCKCPAPNLLGGPSVFIFPPKIKDVLMISLSPIVTCVVVDVSEDDPDVQISWFVNNVEVHTAQTQTHREDYNSTLRVVSALPIQHQDWMSGKEFKCKVNNKDLPAPIERTISKPKGSVRAPQVYVLPPPEEEMTKKQVTLTCMVTDFMPEDIYVEWTNNGKTELNYKNTEPVLDSDGSYFMYSKLRVEKKNWVERNSYSCSVVHEGLHNHHTTKSFSRTPGK
light: DIVMSQSPKSMSMSVGERVALSCKASENVGTYVSWYQQKPEQSPKLLIYGASNRYTGVPDRFTGSGSATDFTLTISSVQAEDLADYYCGQSYSYPLTFGAGTKLELKRADAAPTVSIFPPSSEQLTSGGASVVCFLNNFYPKDINVKWKIDGSERQNGVLNSWTDQDSKDSTYSMSSTLTLTKDEYERHNSYTCEATHKTSTSPIVKSFNRNEC
B2: GPC1 ADC (conjugate)
heavy: QVQLKQSGPELVKPGASVKISCKASGYSFTGYYMHWVKQSPEKSLEWIGEINPSTGDTTYNQKFKAKATLTVDKSSSTAYMQLKSLTSEDSAVYYCAREKRDDGVFAYWGQGTLVTVSSAKTTAPSVYPLAPVCGDTTGSSVTLGCLVKGYFPEPVTLTWNSGSLSSGVHTFPAVLQSDLYTLSSSVTVTSSTWPSQSITCNVAHPASSTKVDKKIEPRGPTIKPCPPCKCPAPNLLGGPSVFIFPPKIKDVLMISLSPIVTCVVVDVSEDDPDVQISWFVNNVEVHTAQTQTHREDYNSTLRVVSALPIQHQDWMSGKEFKCKVNNKDLPAPIERTISKPKGSVRAPQVYVLPPPEEEMTKKQVTLTCMVTDFMPEDIYVEWTNNGKTELNYKNTEPVLDSDGSYFMYSKLRVEKKNWVERNSYSCSVVHEGLHNHHTTKSFSRTPGK
light: DIVMSQSPKSMSMSVGERVALSCKASENVGTYVSWYQQKPEQSPKLLIYGASNRYTGVPDRFTGSGSATDFTLTISSVQAEDLADYYCGQSYSYPLTFGAGTKLELKRADAAPTVSIFPPSSEQLTSGGASVVCFLNNFYPKDINVKWKIDGSERQNGVLNSWTDQDSKDSTYSMSSTLTLTKDEYERHNSYTCEATHKTSTSPIVKSFNRNEC

What was measured:
TE14 cell strain = experiment: In vivo antitumor effect of unlabeled anti-GPC1 antibody, TE14 graft in SCID mice; set-up: species or system mouse
Protocol: Specifically, 2.0×10^6 cells of TE14 cell strain were subcutaneously grafted into female SCID mice (6 week old, n=9). When the tumor size reached about 100 mm^3 on about day 10 to 14 after grafting, administration of control mouse IgG2a (sigma, M7769) and anti-GPC1 antibody 01a033 each at 10 mg/kg was started, which were intraperitoneally administered on day 0, day 3, day 7, day 10, day 14, and day 17, with the day starting the administration considered 0 day. The tumor volume was measured on day 0, day 3, day 7, day 10, day 14, day 17, day 21, day 24, day 28, and day 31.

[1] = test system: TE8, HeLa, ME180, BxPC3, and T3M4 cell strains; experiment: Internalization assay on GPC1 ADC (01a033), various GPC1 positive cell strains; assay type: cell-based; conditions: esophageal, pancreatic and cervical cancer derived cell strains, 37° C.
Protocol: Detection was performed on cells treated with GPC1 ADC (01a033) MMAF with anti-GPC1 mAb (biotin-labeled 02b006) and PE-labeled streptavidin.
TE8, HeLa, ME180, BxPC3, and T3M4 cell strains were detached and collected from a 10 cm plate using 0.02% EDTA. Cells were suspended in RPMI1640+10% FBS+100 U/ml penicillin+100 μg/ml streptomycin, and two 1.5 ml tubes were created at 1.0×10^6 cells/0.9 ml. To lower the internalization activity, the tubes were left standing on ice for 1 hour. 1 mg/ml of GPC1 ADC (01a033) MMAF was diluted to 24 μg/mL (160 nM) with ice-cooled RPMI1640+10% FBS+100 U/ml penicillin+100 μg/ml streptomycin. 100 μl of the ADC was added and suspended in the cell suspension and incubated on ice for 30 minutes to stain the antigens on the cell surface. After 30 minutes, the cell suspension was dispensed into 7 tubes each at 100 μl each. The cell suspension was separated into 4° C. incubation group and 37° C. incubation group in 14 tubes. The incubation times were 0.0 h, 1 h, 2 h, 3 h, 4 h, 6 h, 12 h, and 24 h. After reaching the incubation time, the cells were centrifuged at 1500 rpm at 4° C. for 5 minutes to remove the supernatant. The cells were washed with 100 μl of ice cooled PBS+0.2% BSA and subjected to centrifugation to wash the cells. Washing operation was performed three times in total. […]

HeLa cells = experiment: In vitro ADC assay, HeLa cells; assay type: cell-based; conditions: 144 hours
Protocol: Preparation of a conjugate of mouse anti-Glypican-1 mAb (01a033), mouse IgG2a (biolegend #400224) as a control, and mc-vc-PAB-MMAF was commissioned to MORADEC. An anticancer agent was conjugated to a cysteine residue via a cleavable linker. The DAR (drug-antibody ratio) was as follows. GPC1-CL-MMAF DAR=3.8, mouse IgG2a-CL-MMAF DAR=4.1.
(1) The cells were seeded on Thermo Fisher Scientific's 96-well white plate (model no.: 136101) (90 μl cell suspension). RPMI1640+10% FBS+100 U/ml penicillin+100 μg/ml streptomycin was used as the medium. The cells were seeded in 60 wells, and 100 μL of medium was added to 36 wells, and cultured in a 5% CO2 incubator at 37° C. (2) The next day, 10 μL of ADC was added to the cells (total amount: 100 μL). (3) After 144 hours of culture, a CellTiter-Glo™ Luminescence Cell Viability Assay reagent (Promega) was added and mixed at 100 μL/well. (4) Measurements were taken with a plate reader. (5) Analysis was conducted with GraphPad Prism 6.
The IC50 values were calculated from the following equation (Hossain M M, Hosono-Fukao T, Tang R, Sugaya N, van Kuppevelt T H, Jenniskens G J, Kimata K, Rosen S D, Uchimura K (2010) Direct detection of HSulf-1 and HSulf-2 activities on extracellular heparan sulphate and their inhibition by PI-88. Glycobiology 20(2): 175-186.)
IC50=10^(Log [A][B]×(50−C)/(D−C)+Log [B]) […]

[2] = Single dose safety test on GPC1 ADC in C57BL/6J mice
Protocol: A single dose (1 ml) of control PBS, control ADC (50 mg/kg), anti-GPC1 ADC (3 mg/kg), anti-GPC1 ADC (15 mg/kg), and anti-GPC1 ADC (50 mg/kg) was intraperitoneally administered on day 1 to a group of 4 male and 4 female C57BL/6J mice (8W). The mice were dissected after 7 days from administration.
*Blood collection (Blood cell count, biochemical test)

BxPC3 cell strain = experiment: In vivo efficacy test on GPC1 ADC using pancreatic cancer cell strain BxPC3 in SCID mice; set-up: species or system mouse
Protocol: Specifically, 5.0×10^6 cells of the BxPC3 cell strain were subcutaneously grafted into female SCID mice. […] The tumor volume and body weight were measured on day 0, day 4, day 8, day 12, day 16, day 20, day 24, day 28, day 32, and day 36.
After subcutaneous tumorigenesis of BxPC3, (1) PBS, (2) control ADC at 10 mg/kg, and (3) GPC1-ADC at 1 mg/kg, 3 mg/kg, and 10 mg/kg were administered once into the tail vein. The tumor was extracted after 24 hours. After deparaffinization of a section of a paraffin embedded tissue, the slice was dehydrated with alcohol.
Immunohistochemical staining on Phospho-Histon H3 (Ser10) was performed using an anti-Phospho-Histon H3 (Ser10) antibody (Cell Signaling Technology: #9701) and ChemMate Envision kit HRP 500T (Dako: K5007).

[3] = single ip dose, high dose administration group, not GPC1-ADC specific

Molecule | ADCC activity (TE14 cell strain; concluded from the lack of in vivo antitumor effect) | antitumor effect (tumor volume, tumor weight day 31) (TE14 cell strain; unlabeled antibody 10 mg/kg ip day 0, 3, 7, 10, 14, 17) | internalization activity [1] | effect of suppressing cell growth (HeLa cells) | toxicity from the results of the hematological test ([2]; single ip dose) | anemia (hemoglobin) ([2]; single ip dose 50 mg/kg) | amylase ([2]; single ip dose 3, 15, 50 mg/kg) | platelet count ([2]; single ip dose 3, 15, 50 mg/kg) | change in the body weight ([2]; single ip dose, groups other than 50 mg/kg (3, 15 mg/kg), 7 days) | liver function (ALT) [2, 3] | white blood cells [2, 3] | tumor volume (BxPC3 cell strain; 3 mg/kg iv day 0, 4, 8, 12) | tumor volume (BxPC3 cell strain; 10 mg/kg iv day 0, 4, 8, 12) | change in the body weight (BxPC3 cell strain; any dosage tested (1, 3, 10 mg/kg)) | antitumor effect (tumor volume, tumor weight day 36) (BxPC3 cell strain; iv day 0, 4, 8, 12, anti-GPC1 ADC 1, 3, 10 mg/kg (all groups), control ADC 10 mg/kg) | G2/M phase arrest in tumor tissue (Phospho-Histon H3 (Ser10) staining) (BxPC3 cell strain; single tail vein dose 1, 3, 10 mg/kg, tumor extracted after 24 hours)
B1 | does not have ADCC activity | no antitumor effect | high internalization activity |  |  |  |  |  |  |  |  |  |  |  |  | 
B2 |  |  |  | exhibits an effect of suppressing cell growth | Significant toxicity due to ADC administration was not observed | Mild anemia | Specific abnormality was not observed | Abnormal platelet count specific to each group was not observed | Significant change in the body weight was not observed | An abnormality in the liver function was found | increase in the while blood cells was observed | tumor volume was significantly reduced | tumor volume was significantly reduced | significant change in the body weight was not observed | significant antitumor effect | resulted in G2/M phase arrest
